Assay results published in article PMC10352329 (2023).
Changes are numbered by the printed parent chain. Names may count otherwise. Blank lines part the entries; values can stand above or below the binder they belong to. Where no end group is shown, it is not given here.

Tests used:
[1] = biological target: T1, human p300BRP (residues 1048–1282), wild type (human, UniProt Q09472 1048-1282, fluorescently labeled with a His tag Labeling Kit (microscale thermophoresis only)); test: ITC
T1 chain: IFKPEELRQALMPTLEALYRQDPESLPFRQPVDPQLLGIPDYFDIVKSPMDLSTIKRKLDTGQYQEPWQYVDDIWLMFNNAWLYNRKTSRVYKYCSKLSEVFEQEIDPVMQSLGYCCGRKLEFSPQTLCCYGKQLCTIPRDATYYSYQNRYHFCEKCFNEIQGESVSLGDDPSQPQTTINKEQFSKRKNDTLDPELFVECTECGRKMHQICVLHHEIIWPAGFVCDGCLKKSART

[2] = biological target: 180-bp unmodified nucleosome (human, UniProt P04908 1-130; P68431 1-136; P62805 1-103); test: MST
[3] = biological target: N-terminal bromodomain of human BRD4 (residues 44–168) (human, UniProt O60885 44-168); test: ITC

Kd [1]: > 500 µM
Binder: PAPKK(Ac)GSK(Ac)KAVTK [di-acetylated H2B peptide K12ac/K15ac]

B1: human p300BRP (residues 1048–1282), 4A-substituted mutant (R1133A, K1134A, R1137A, K1140A) (domain or fragment)
chain: T1 chain with R86A, K87A, R90A, K93A
modifications: fluorescently labeled with a His tag Labeling Kit (microscale thermophoresis)
EC50 [2]: 0.0073 µM

Kd [3]: > 500 µM
Binder: KAVTK(Ac)AQK(Ac)KDGK [di-acetylated H2B peptide K20ac/K23ac]
